What was measured:
[1] = molecular target: wild-type C. difficile toxin B (TcdB) (Clostridium difficile strain 630, UniProt P18177 2-2366); test: binding specificity, Table 18
[2] = molecular target: Commercial, Control Toxin B wt (List Biologicals) (Clostridium difficile, UniProt P18177 2-2366); test: dot blot, non-denaturing conditions
Chain of Commercial, Control Toxin B wt (List Biologicals) (P18177 2-2366 limits assumed): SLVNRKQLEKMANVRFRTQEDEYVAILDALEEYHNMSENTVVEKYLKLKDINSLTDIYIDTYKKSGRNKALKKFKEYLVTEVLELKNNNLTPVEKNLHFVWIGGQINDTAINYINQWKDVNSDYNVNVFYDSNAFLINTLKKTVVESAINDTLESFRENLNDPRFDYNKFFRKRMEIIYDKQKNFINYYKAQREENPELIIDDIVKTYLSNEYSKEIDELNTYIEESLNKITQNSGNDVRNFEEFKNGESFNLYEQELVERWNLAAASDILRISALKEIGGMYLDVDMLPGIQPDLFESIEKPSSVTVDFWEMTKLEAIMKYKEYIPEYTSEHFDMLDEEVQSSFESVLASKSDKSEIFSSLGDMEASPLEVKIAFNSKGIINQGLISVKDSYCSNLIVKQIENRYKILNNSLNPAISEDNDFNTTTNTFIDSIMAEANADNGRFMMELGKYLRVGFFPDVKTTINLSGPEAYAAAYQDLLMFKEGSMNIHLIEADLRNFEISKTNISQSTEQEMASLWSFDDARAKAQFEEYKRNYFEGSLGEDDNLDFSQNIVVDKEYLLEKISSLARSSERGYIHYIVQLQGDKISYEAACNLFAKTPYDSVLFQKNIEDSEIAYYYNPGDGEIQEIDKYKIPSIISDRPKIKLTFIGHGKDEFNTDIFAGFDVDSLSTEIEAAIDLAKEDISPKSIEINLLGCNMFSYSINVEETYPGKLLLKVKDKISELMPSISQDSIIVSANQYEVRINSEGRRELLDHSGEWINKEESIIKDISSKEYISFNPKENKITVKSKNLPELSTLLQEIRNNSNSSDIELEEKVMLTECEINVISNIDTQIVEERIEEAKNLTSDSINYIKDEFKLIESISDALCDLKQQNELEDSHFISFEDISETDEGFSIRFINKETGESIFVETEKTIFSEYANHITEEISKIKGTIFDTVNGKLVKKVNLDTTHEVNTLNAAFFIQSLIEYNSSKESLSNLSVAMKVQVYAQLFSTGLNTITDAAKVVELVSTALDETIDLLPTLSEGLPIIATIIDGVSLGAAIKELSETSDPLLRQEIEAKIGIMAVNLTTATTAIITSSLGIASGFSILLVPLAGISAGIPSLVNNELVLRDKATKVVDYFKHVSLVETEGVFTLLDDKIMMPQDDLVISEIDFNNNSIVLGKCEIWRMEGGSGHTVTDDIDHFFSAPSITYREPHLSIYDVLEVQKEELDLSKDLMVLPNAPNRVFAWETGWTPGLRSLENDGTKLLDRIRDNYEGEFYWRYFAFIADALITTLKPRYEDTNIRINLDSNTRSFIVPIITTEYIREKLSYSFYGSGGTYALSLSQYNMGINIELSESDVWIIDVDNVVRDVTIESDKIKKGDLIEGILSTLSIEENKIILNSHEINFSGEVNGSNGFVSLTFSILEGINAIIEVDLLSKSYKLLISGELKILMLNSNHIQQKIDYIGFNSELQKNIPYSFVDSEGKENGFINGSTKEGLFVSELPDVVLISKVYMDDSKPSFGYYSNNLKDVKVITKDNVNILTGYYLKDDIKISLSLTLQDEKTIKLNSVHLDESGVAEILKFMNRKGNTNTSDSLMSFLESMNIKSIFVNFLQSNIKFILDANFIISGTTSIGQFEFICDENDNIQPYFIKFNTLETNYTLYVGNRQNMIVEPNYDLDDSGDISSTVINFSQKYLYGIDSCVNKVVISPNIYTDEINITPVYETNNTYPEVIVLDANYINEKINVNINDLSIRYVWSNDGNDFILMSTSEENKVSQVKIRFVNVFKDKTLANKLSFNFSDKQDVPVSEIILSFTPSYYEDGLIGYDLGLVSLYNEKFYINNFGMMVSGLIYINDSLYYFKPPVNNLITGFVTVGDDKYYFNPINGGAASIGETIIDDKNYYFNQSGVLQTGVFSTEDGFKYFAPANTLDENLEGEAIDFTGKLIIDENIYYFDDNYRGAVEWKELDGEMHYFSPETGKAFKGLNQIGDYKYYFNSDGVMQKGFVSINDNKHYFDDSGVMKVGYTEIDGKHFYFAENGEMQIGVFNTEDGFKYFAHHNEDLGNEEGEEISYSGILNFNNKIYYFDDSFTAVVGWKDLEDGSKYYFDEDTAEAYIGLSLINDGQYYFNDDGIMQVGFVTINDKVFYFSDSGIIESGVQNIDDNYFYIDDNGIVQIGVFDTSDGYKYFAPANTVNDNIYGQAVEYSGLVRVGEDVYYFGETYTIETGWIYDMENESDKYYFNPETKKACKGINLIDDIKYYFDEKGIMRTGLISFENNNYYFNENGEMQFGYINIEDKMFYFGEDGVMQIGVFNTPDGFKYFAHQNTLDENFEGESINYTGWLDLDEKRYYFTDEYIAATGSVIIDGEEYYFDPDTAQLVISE

Chain of wild-type C. difficile toxin B (TcdB) (P18177 2-2366 limits assumed): as above

Row | Binder | binding result [1] | binding result [2]
1 | B9-30 mAb (antibody, V domains shown) VH: QVQLQQPGAEVVKPGAPVKLSCKASGYPFTNYWMNWVKQRPGRGLEWIGRIDPSNSEIYYNQKFKDKATLTVDKSSSTAYIQLSSLTSEDSAVYYCASGHYGSIFAYWGQGTTLTVSS VL: VQITQSPSYLAASPGETITINCRASKSISKYLAWYQEKPGKTNKLLIYSGSTLQSGIPSRFSGSRSGTDFTLIISSLEPEDSAMYYCQQHNEYPLTFGAGTKLELKR | binds | 
2 | B9-30 mAb (C. difficile TcdB neutralizing antibody) (antibody, V domains shown) VH: QVQLQQPGAEVVKPGAPVKLSCKASGYPFTNYWMNWVKQRPGRGLEWIGRIDPSNSEIYYNQKFKDKATLTVDKSSSTAYIQLSSLTSEDSAVYYCASGHYGSIFAYWGQGTTLTVSS VL: VQITQSPSYLAASPGETITINCRASKSISKYLAWYQEKPGKTNKLLIYSGSTLQSGIPSRFSGSRSGTDFTLIISSLEPEDSAMYYCQQHNEYPLTFGAGTKLELKR |  | binds

From USRE46376 (Wyeth LLC, dated 2017)
